Data reported in PMC3079231 (International journal of mass spectrometry, 2011).
Where a chain is given by its changes, count along the chain named. Names may count otherwise.

B1: Salmonella typhimurium AhpC T77I mutant (enzyme)
chain: SLINTKIKPFKNQAFKNGEFIEVTEKDTEGRWSVFFFYPADFTFVCPTELGDVADHYEELQKLGVDVYSVSTDTHFIHKAWHSSSETIAKIKYAMIGDPTGALTRNFDNMREDEGLADRATFVVDPQGIIQAIEVTAEGIGRDASDLLRKIKAAQYVAAHPGEVCPAKWKEGEATLAPSLDLVGKI
modifications: oxidized form: intersubunit disulfide (Cys-46 to Cys-165); reduced form (TCEP): free thiols
B2: Salmonella typhimurium AhpC T77V mutant (enzyme)
chain: B1 chain with I77V
modifications: oxidized form: intersubunit disulfide (Cys-46 to Cys-165); reduced form (TCEP): free thiols

Target: the molecule itself
Assay: HDX-MS

Row | Protein | binding result
1 | B1 | binds
2 | B2 | binds
